In patent US20110117021A1:

Molecular target: human VAP-1 expressed on the surface of transfected Ax rat endothelial cells (human) (UniProt Q16853)
Assay: cell-based or functional assay

human VAP-1 expressed on the surface of transfected Ax rat endothelial cells (human), sequence (Q16853 whole entry): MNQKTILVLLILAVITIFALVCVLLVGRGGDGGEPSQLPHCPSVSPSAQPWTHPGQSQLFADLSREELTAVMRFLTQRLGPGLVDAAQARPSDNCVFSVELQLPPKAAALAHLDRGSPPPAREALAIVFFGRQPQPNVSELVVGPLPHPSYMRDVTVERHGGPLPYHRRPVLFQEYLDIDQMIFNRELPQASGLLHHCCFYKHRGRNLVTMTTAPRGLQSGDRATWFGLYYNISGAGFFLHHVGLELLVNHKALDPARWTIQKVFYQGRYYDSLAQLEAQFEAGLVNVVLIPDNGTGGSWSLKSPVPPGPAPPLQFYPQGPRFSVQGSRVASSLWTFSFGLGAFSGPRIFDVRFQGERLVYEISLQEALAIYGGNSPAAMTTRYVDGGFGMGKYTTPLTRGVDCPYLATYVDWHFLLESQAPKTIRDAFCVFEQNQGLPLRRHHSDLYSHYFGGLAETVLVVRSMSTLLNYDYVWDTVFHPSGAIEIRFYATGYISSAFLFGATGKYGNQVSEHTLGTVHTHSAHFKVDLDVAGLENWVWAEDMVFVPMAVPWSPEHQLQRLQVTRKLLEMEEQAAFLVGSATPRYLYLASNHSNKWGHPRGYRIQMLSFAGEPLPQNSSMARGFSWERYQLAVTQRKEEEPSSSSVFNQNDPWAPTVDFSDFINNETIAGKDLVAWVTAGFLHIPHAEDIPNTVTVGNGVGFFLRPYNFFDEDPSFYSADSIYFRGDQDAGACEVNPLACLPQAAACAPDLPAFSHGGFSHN

- migration of human PBMC through a monolayer of Ax endothelial cells expressing human VAP-1 (in vitro transmigration assay): 1
Substance: BTT-1002, chimeric anti-VAP-1 monoclonal antibody
